To fix the notation:
T1: GRIP1_5, Q9Y3R0
T1 sequence (Q9Y3R0 568-668, limits assumed, looked up): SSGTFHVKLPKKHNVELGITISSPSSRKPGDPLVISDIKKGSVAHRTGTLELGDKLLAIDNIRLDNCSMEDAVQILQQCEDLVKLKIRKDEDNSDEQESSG

T2: MPP6, Q9NZW5
T2 sequence (Q9NZW5 125-219, limits assumed, looked up): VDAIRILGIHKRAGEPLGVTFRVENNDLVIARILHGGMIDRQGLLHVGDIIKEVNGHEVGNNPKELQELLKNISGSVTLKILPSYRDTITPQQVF

T3: GRIP1_3, Q9Y3R0
T3 sequence (Q9Y3R0 247-346, limits assumed, looked up): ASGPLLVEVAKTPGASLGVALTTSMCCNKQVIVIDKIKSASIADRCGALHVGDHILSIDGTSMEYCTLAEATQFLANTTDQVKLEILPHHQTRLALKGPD

T4: TX1BP3, O14907
T4 sequence (O14907 10-122, limits assumed, looked up): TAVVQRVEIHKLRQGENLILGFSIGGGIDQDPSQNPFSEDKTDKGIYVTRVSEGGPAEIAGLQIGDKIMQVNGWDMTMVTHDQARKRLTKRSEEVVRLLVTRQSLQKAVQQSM

T5: DFNB31_2, Q9P202
T5 sequence (Q9P202 274-371, limits assumed, looked up): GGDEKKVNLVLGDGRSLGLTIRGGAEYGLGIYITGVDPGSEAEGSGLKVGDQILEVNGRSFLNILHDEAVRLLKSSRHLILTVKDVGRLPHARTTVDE

T6: GRIP1_2, Q9Y3R0
T6 sequence (Q9Y3R0 145-248, limits assumed, looked up): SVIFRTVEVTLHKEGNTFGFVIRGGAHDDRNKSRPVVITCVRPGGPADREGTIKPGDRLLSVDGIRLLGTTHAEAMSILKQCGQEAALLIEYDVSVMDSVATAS

T7: SIPA1L2, Q9P2F8
T7 sequence (Q9P2F8 945-1036, limits assumed, looked up): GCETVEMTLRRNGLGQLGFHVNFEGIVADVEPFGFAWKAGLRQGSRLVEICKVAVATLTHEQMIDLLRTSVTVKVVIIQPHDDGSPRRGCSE

T8: SNTA1, Q13424
T8 sequence (Q13424 82-180, limits assumed, looked up): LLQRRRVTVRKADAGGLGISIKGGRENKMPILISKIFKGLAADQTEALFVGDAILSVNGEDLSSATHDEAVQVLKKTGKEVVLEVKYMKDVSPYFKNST

T9: TJP3_3, O95049
T9 sequence (O95049 375-456, limits assumed, looked up): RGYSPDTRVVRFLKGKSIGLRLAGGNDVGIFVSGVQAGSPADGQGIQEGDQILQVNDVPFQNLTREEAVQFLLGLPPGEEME

T10: MPDZ_10, O75970
T10 sequence (O75970 1624-1722, limits assumed, looked up): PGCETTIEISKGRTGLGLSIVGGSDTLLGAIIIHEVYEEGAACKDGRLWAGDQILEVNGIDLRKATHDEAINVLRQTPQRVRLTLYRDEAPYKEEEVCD

T11: CARD11, Q9BXL7
T11 sequence (Q9BXL7 662-765, limits assumed, looked up): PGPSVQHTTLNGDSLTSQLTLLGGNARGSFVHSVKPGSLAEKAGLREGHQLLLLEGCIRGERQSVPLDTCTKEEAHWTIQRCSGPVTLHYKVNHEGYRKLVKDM

T12: PTPN13_1, Q12923
T12 sequence (Q12923 1088-1188, limits assumed, looked up): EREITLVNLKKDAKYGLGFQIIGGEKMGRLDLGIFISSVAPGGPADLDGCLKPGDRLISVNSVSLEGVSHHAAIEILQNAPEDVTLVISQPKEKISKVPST

T13: LNX2_2, Q8N448
T13 sequence (Q8N448 334-432, limits assumed, looked up): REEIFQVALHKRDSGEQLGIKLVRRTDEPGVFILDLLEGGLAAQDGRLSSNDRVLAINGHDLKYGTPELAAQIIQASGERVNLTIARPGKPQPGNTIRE

T14: APBA1_1, Q02410
T14 sequence (Q02410 651-752, limits assumed, looked up): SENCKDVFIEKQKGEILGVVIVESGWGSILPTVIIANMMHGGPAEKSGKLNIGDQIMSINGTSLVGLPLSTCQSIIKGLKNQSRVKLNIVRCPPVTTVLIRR

B1: ATP2B4, P23634 (peptide)
chain: SSLQSLETSV
B2: TMIGD1, Q6UXZ0 (peptide)
chain: DKDPHSETAL

AHNAK1, Q09666, sequence (Q09666 4-100): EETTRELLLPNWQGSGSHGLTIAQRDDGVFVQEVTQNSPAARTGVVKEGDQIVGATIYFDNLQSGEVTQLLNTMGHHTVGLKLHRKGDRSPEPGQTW
GRIP2_3, Q9C0E4, sequence (Q9C0E4 238-339): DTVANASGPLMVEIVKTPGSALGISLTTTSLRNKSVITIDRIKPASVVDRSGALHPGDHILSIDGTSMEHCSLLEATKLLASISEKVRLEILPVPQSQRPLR

One test addresses GRIP2_3, Q9C0E4. The test can be described thus: holdup assay. Details: key: below the threshold = too weak to quantify, mostly under pKd 3.1 to 4. The note with it: plain residues with an end cap or a label only (N-terminal biotin on a linker: ttds).
The pKd is the Kd on a negative log10 scale, so that one unit is a factor of ten. Consider B1, for which the pKd result was “below the threshold”.

B2: the pKd result is recorded as “below the threshold”.

A further test addresses AHNAK1, Q09666. Put plainly: holdup assay. Details: key: below the threshold = too weak to quantify, mostly under pKd 3.1 to 4. The settings on record: plain residues with an end cap or a label only (N-terminal biotin on a linker: ttds).
As for B1, the pKd result was “below the threshold”.

With B2, the pKd result is “below the threshold”.

The target of the next test is T1, GRIP1_5, Q9Y3R0. Put plainly: holdup assay. Details: key: below the threshold = too weak to quantify, mostly under pKd 3.1 to 4. The note with it: plain residues with an end cap or a label only (N-terminal biotin on a linker: ttds).
With B1, the pKd result was “below the threshold”.

On to B2, for which the pKd entry was “below the threshold”.

The target of another test is T2, MPP6, Q9NZW5. Put plainly: holdup assay. Details: key: below the threshold = too weak to quantify, mostly under pKd 3.1 to 4. The note with it: plain residues with an end cap or a label only (N-terminal biotin on a linker: ttds).
B1 displayed a negative-log Kd (pKd) of 3.56.

Consider B2, for which the negative logarithm of the Kd (pKd) result is “below the threshold”.

A further test deals with T3, GRIP1_3, Q9Y3R0. Put plainly: holdup assay. Details: key: below the threshold = too weak to quantify, mostly under pKd 3.1 to 4. The note with it: plain residues with an end cap or a label only (N-terminal biotin on a linker: ttds).
Turning to B1, the pKd entry is “below the threshold”.

As to B2, the pKd entry is reported as “below the threshold”.

Another test deals with T4, TX1BP3, O14907. The test can be described thus: holdup assay. Details: key: below the threshold = too weak to quantify, mostly under pKd 3.1 to 4. The settings on record: plain residues with an end cap or a label only (N-terminal biotin on a linker: ttds).
Regarding B1, the pKd came to 4.62.

Molecule B2 yielded a pKd of 4.03.

The target of another test is T5, DFNB31_2, Q9P202. The test can be described thus: holdup assay. Details: key: below the threshold = too weak to quantify, mostly under pKd 3.1 to 4. The note with it: plain residues with an end cap or a label only (N-terminal biotin on a linker: ttds).
B1: the negative logarithm of the Kd (pKd) entry is “below the threshold”.

For B2, the pKd entry is recorded as “below the threshold”.

The target in another test is GRIP2_5, Q9C0E4. The test can be described thus: holdup assay. Details: key: below the threshold = too weak to quantify, mostly under pKd 3.1 to 4. The settings on record: plain residues with an end cap or a label only (N-terminal biotin on a linker: ttds).
GRIP2_5, Q9C0E4, sequence (Q9C0E4 544-642): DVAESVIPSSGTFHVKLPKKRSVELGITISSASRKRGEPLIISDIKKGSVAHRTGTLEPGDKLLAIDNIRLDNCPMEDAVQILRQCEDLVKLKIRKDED
Consider B1, for which the negative-log Kd (pKd) entry was “below the threshold”.

As for B2, the negative-log Kd (pKd) result was “below the threshold”.

A further test concerns the target T6, GRIP1_2, Q9Y3R0. Put plainly: holdup assay. Details: key: below the threshold = too weak to quantify, mostly under pKd 3.1 to 4. The settings on record: plain residues with an end cap or a label only (N-terminal biotin on a linker: ttds).
B1 registered a pKd of 3.58.

On to B2, for which the pKd result is given as “below the threshold”.

A further test addresses T7, SIPA1L2, Q9P2F8. The test can be described thus: holdup assay. Details: key: below the threshold = too weak to quantify, mostly under pKd 3.1 to 4. The note with it: plain residues with an end cap or a label only (N-terminal biotin on a linker: ttds).
For the molecule B1, the negative logarithm of the Kd (pKd) entry is given as “below the threshold”.

For B2, the pKd result is “below the threshold”.

The target of a further test is TJP1_2, Q07157. Put plainly: holdup assay. Details: key: below the threshold = too weak to quantify, mostly under pKd 3.1 to 4. The settings on record: plain residues with an end cap or a label only (N-terminal biotin on a linker: ttds).
TJP1_2, Q07157, sequence (Q07157 181-274): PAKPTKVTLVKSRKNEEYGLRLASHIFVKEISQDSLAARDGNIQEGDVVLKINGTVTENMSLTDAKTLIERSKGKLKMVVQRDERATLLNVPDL
For B1, the negative logarithm of the Kd (pKd) entry is “below the threshold”.

With B2, the pKd entry was “below the threshold”.

For the next test, the target named is T8, SNTA1, Q13424. Put plainly: holdup assay. Details: key: below the threshold = too weak to quantify, mostly under pKd 3.1 to 4. The note with it: plain residues with an end cap or a label only (N-terminal biotin on a linker: ttds).
B1: the pKd came to 4.91.

For B2, the negative logarithm of the Kd (pKd) stood at 4.07.

For a further test, the target named is GORASP2, Q9H8Y8. The test can be described thus: holdup assay. Details: key: below the threshold = too weak to quantify, mostly under pKd 3.1 to 4. The settings on record: plain residues with an end cap or a label only (N-terminal biotin on a linker: ttds).
On to B1, for which the pKd was 3.98.

On to B2, for which the pKd result is recorded as “below the threshold”.

In a further test the target is DLG2_3, Q15700. Put plainly: holdup assay. Details: key: below the threshold = too weak to quantify, mostly under pKd 3.1 to 4. The note with it: plain residues with an end cap or a label only (N-terminal biotin on a linker: ttds).
B1 had a pKd of 4.88.

Turning to B2, the pKd entry is on record as “below the threshold”.

The target of another test is T9, TJP3_3, O95049. Put plainly: holdup assay. Details: key: below the threshold = too weak to quantify, mostly under pKd 3.1 to 4. The note with it: plain residues with an end cap or a label only (N-terminal biotin on a linker: ttds).
As to B1, the negative logarithm of the Kd (pKd) came to 3.71.

B2: the negative logarithm of the Kd (pKd) turned out to be 3.49.

The target in a further test is Inadl_4, Q8NI35. The test can be described thus: holdup assay. Details: key: below the threshold = too weak to quantify, mostly under pKd 3.1 to 4. The note with it: plain residues with an end cap or a label only (N-terminal biotin on a linker: ttds).
Inadl_4, Q8NI35, sequence (Q8NI35 547-651): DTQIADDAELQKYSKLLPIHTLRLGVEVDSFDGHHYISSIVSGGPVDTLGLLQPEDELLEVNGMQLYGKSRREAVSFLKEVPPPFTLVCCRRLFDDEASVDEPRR
In the case of B1, the negative logarithm of the Kd (pKd) result is on record as “below the threshold”.

B2: the pKd result is reported as “below the threshold”.

The target of the next test is T10, MPDZ_10, O75970. Put plainly: holdup assay. Details: key: below the threshold = too weak to quantify, mostly under pKd 3.1 to 4. The settings on record: plain residues with an end cap or a label only (N-terminal biotin on a linker: ttds).
As for B1, the negative-log Kd (pKd) entry was “below the threshold”.

Turning to B2, the negative logarithm of the Kd (pKd) entry is “below the threshold”.

The target in the next test is T11, CARD11, Q9BXL7. Put plainly: holdup assay. The settings on record: plain residues with an end cap or a label only (N-terminal biotin on a linker: ttds). Details: key: below the threshold = too weak to quantify, mostly under pKd 3.1 to 4.
For B1, the pKd result was “below the threshold”.

Consider B2, for which the pKd result is listed as “below the threshold”.

The next test has as its target T12, PTPN13_1, Q12923. The test can be described thus: holdup assay. Details: key: below the threshold = too weak to quantify, mostly under pKd 3.1 to 4. The note with it: plain residues with an end cap or a label only (N-terminal biotin on a linker: ttds).
For B1, the pKd stood at 3.5.

With B2, the negative-log Kd (pKd) entry is listed as “below the threshold”.

Another test deals with T13, LNX2_2, Q8N448. Put plainly: holdup assay. Details: key: below the threshold = too weak to quantify, mostly under pKd 3.1 to 4. The settings on record: plain residues with an end cap or a label only (N-terminal biotin on a linker: ttds).
For the molecule B1, the negative-log Kd (pKd) worked out at 4.01.

As for B2, the pKd result is reported as “below the threshold”.

For a further test, the target named is HTRA2, O43464. Put plainly: holdup assay. The settings on record: plain residues with an end cap or a label only (N-terminal biotin on a linker: ttds). Details: key: below the threshold = too weak to quantify, mostly under pKd 3.1 to 4.
HTRA2, O43464, sequence (O43464 355-458): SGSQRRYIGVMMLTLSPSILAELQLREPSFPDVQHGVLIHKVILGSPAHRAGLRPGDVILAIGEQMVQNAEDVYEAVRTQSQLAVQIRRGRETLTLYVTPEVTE
Take B1: the pKd entry is listed as “below the threshold”.

With B2, the negative-log Kd (pKd) entry is “below the threshold”.

The target of another test is T14, APBA1_1, Q02410. The test can be described thus: holdup assay. The settings on record: plain residues with an end cap or a label only (N-terminal biotin on a linker: ttds). Details: key: below the threshold = too weak to quantify, mostly under pKd 3.1 to 4.
In the case of B1, the pKd result is “below the threshold”.

Consider B2, for which the pKd result is given as “below the threshold”.

These data come from article PMC9482650, “Quantitative fragmentomics allow affinity mapping of interactomes” (Nature Communications, 2022).
